Measurements reported in patent publication US9370555B2, “Surfactant protein D for the treatment of disorders associated with lung injury” (priority 1998, dated 2016).
“Also recorded” adds a separate entry of the source.

Key:
[1] = Ultrastructure of surfactant mixtures (electron micrographs); format: physicochemical; settings: SURVANTA mixed with buffer or rhSP-D
Method: (§1) Surface tension was measured by captive bubble surfactometer (Schoel M, et al. The captive bubble method for the evaluation of pulmonary surfactant: surface tension, area, and volume calculations. Biochim Biophys Acta 1994; 1200:281-290) on 3 μL of samples containing 15 μg/μL […]® and 2% rhSP-D or buffer in the presence or absence of surfactant inhibitor (21 μg/μL plasma protein) (Ikegami M, et al. Characteristics of surfactant from SP-A deficient mice. Am J Physiol Lung Cell Mol Physiol 1998; 275:L247-L25). This amount of plasma protein relative to […]® was 30% lower than the concentration that is known to inhibit the activity of […]® in the ventilated premature newborn lamb lung in vivo (Wada K, et al. Tidal volume effects on surfactant treatment responses with the initiation of ventilation in preterm lambs. J Appl Physiol 1997; 83:1054-1061). The influence of rhSP-D on the ultrastructure of […]® was studied as previously described (Schmiedl A, et al. Influence of plasma and inflammatory proteins on the ultrastructure of exogenous surfactant. J Electron Microsc (Tokyo) 2004; 53:407-416).

premature lambs [2] = experiment: Lung function and morphology in ventilated premature lambs; format: in vivo, sheep
[3] = Surface tension by captive bubble surfactometer; format: physicochemical; settings: 15 μg/μL SURVANTA with 2% rhSP-D or buffer
Method: as §1

premature lambs [4] = experiment: Pulmonary inflammation in ventilated premature lambs (BALF cells, NE activity, cytokine mRNA and protein, flow cytometry); format: in vivo, sheep
Method: A five hour study period was chosen to detect changes in proinflammatory cytokine mRNAs induced by initial ventilation (Naik A S, et al. Effects of ventilation with different positive end-expiratory pressures on cytokine expression in the preterm lamb lung. Am J Respir Crit Care Med 2001; 164:494-498). After five hours, lambs were ventilated with FiO2=1 for five minutes, then given 100 mg pentobarbital intravascularly, after which the endotracheal tube was clamped to permit oxygen absorption atelectasis (Ikegami M, et al. Intratracheal recombinant surfactant protein D prevents endotoxin shock in the newborn preterm lamb. Am J Respir Crit Care Med 2006; 173:1342-1347; Ikegami M, Jobe A. Postnatal lung inflammation increased by ventilation of preterm lambs exposed antenatally to E. coli endotoxin. Pediatr Res 2002; 52:356-362). After the thorax was opened, the deflation limb of pressure-volume curve was measured (Kramer B W, et al. Surfactant protein A recruits neutrophils into the lungs of ventilated preterm lambs. Am J Respir Crit Care Med 2001; 163:158-165; Ikegami M, et al. Intratracheal recombinant surfactant protein D prevents endotoxin shock in the newborn preterm lamb. Am J Respir Crit Care Med 2006; 173:1342-1347). Lung tissue of the right lower lobe was frozen in liquid nitrogen for RNA isolation and measurement of neutrophil elastase (NE) activity (Lowry O H, et al. Protein measurement with the Folin phenol reagent. J Biol Chem 1951; 193:265-275; Watterberg K L, et al. Secretory leukocyte protease inhibitor and lung inflammation in developing bronchopulmonary dysplasia. J Pediatr 1994; 125:264-269). NE is a potent serine proteinase, responsible for tissue destruction in the adult lung with emphysema (Shapiro S D, et al. Neutrophil elastase contributes to cigarette smoke-induced emphysema in mice. Am J Pathol 2003; 163:2329-2335). In the preterm newborn lung, increased NE activity affects lung remodeling and increases alveolar epithelial apoptosis and the development of BPD (Watterberg K L, et al. Secretory leukocyte protease inhibitor and lung inflammation in developing bronchopulmonary dysplasia. J Pediatr 1994; 125:264-269; Yasumatsu R, et al. SERPINB1 upregulation is associated with in vivo complex formation with neutrophil elastase and cathepsin G in a baboon model of bronchopulmonary dysplasia. Am J Physiol Lung Cell Mol Physiol 2006; 291:L619-L627). NE activity was assessed by a spectrophotometric assay using a chromogenic substrate specific for NE, N-methoxy-succinyl-Ala-Ala-Pro-Val pNA (Yasumatsu R, et al. SERPINB1 upregulation is associated with in vivo complex formation with neutrophil elastase and cathepsin G in a baboon model of bronchopulmonary dysplasia. Am J Physiol Lung Cell Mol Physiol 2006; 291:L619-L627).
; Lung tissue of the right middle lobe was homogenized in 0.9% NaCl and supernatant after centrifugation at 1,000×g for 15 minutes and frozen for ELISA of proinflammatory cytokine proteins (Kramer B W, et al. Surfactant protein A recruits neutrophils into the lungs of ventilated preterm lambs. Am J Respir Crit Care Med 2001; 163:158-165; Ikegami M, et al. Intratracheal recombinant surfactant protein D prevents endotoxin shock in the newborn preterm lamb. Am J Respir Crit Care Med 2006; 173:1342-1347). BALF was recovered from the left lung (Ikegami M, et al. Whitsett J A. Intratracheal recombinant surfactant protein D prevents endotoxin shock in the newborn preterm lamb. Am J Respir Crit Care Med 2006; 173:1342-1347) for further analyses. Total proteins were analyzed (Lowry O H, et al. Protein measurement with the Folin phenol reagent. J Biol Chem 1951; 193:265-275) in the supernatant of BALF after 10 minutes of centrifugation at 284×g. The right upper lobe was inflation-fixed at 30 cm H2O for morphology (Ikegami M, et al. Surfactant protein-D regulates the postnatal maturation of pulmonary surfactant lipid pool sizes. J Appl Physiol 2009; 106:1545-1552). […]

[5] = CD45-positive cells from BALF, flow cytometry
[6] = premature lambs, five hours of ventilation, +rhSP-D vs control
[7] = premature lambs, mean levels decreased by rhSP-D

B1: rhSP-D: recombinant human surfactant protein D, given mixed with SURVANTA to premature lambs (protein, UniProt P35247 21-375, looked up)
Pulmonary …: AEMKTYSHRTMPSACTLVMCSSVESGLPGRDGRDGREGPRGEKGDPGLPGAAGQAGMPGQAGPVGPKGDNGSVGEPGPKGDTGPSGPPGPPGVPGPAGREGPLGKQGNIGPQGKPGPKGEAGPKGEVGAPGMQGSAGARGLAGPKGERGVPGERGVPGNTGAAGSAGAMGPQGSPGARGPPGLKGDKGIPGDKGAKGESGLPDVASLRQQVEALQGQVQHLQAAFSQYKKVELFPNGQSVGEKIFKTAGFVKPFTEAQLLCTQAGGQLASPRSAAENAALQQLVVAKNEAAFLSMTDSKTEGKFTYPTGESLVYSNWAPGEPNDDGGSEDCVEIFTNGKWNDRACGEKRLVVCEF
ultrastructure of surfactant [1]: causing the formation of lipid aggregates and multilayers; also recorded: from simple lipid layers to the mixture of multiple lipid layers and lipid aggregates | mean PIP required to regulate VT at 8 to 9 ml/kg (premature lambs [2]; premature lambs after surfactant at 20 minutes of age, same for controls): 27 cm H2O | Po2/Fio2 (premature lambs [2]; premature lambs, 7 mg rhSP-D mixed with SURVANTA 100 mg/kg vs SURVANTA+buffer control, P<0.01): higher | alveolar fluid (premature lambs [2]; premature lambs, +rhSP-D vs control): More fluid was noted in alveoli of the control lambs; also recorded: More alveolar fluid was observed in control lambs | modified ventilation index (MVI) (premature lambs [2]; premature lambs, +rhSP-D vs control, after 240 minutes, not statistically significant): tends to be better (lower) | deflation limb of pressure-volume curves (premature lambs [2]; premature lambs, +rhSP-D vs control, after five hours): not different | minimum surface tension ([3]; absence of plasma protein): low | minimum surface tension ([3]; presence of surfactant inhibitor (21 μg/μL plasma protein)): remaining low; also recorded: low minimum surface tension in the presence of plasma protein | expression of CD11b (premature lambs [4]; [5]): did not influence expression | expression of CD44 (premature lambs [4]; [5]): did not influence expression | proteins in BALF (premature lambs [4]; premature lambs, +rhSP-D group, control group 60±7): 57 ± 11 mg/kg | lung inflammation (premature lambs [4]; premature lambs, five hours of ventilation): decreased in all the lambs treated with rhSP-D | neutrophils in BALF (premature lambs [4]; [6]): significantly decreased; also recorded: suppressed | total inflammatory cell numbers in BALF (premature lambs [4]; [6]): significantly decreased; also recorded: suppressed | IL-1β protein in the lung (premature lambs [4]; premature lambs, ELISA): not significantly influenced | IL-8 protein in lung homogenates (premature lambs [4]; premature lambs, ELISA, +rhSP-D vs control): significantly decreased | IL-1β mRNA in the lung (premature lambs [4]; premature lambs, RT-PCR): not significantly influenced; also recorded: generally lower | IL-8 mRNA in the lung (premature lambs [4]; premature lambs, RT-PCR, +rhSP-D vs control): significantly decreased; also recorded: significantly suppressed | TNF-α mRNA expression (premature lambs [4]; premature lambs, data not shown): similarly present at low levels in both groups | KC mRNA in the lung (premature lambs [4]; [7]): not significantly different; also recorded: generally lower | MCP1 mRNA in the lung (premature lambs [4]; [7]): not significantly different; also recorded: generally lower | IL-6 mRNA expression in the lung (premature lambs [4]; premature lambs, mean, P=0.06, not statistically significant): generally lower | IL-6 protein in the lung (premature lambs [4]; premature lambs, mean, P=0.1, not statistically significant): lower | neutrophil elastase (NE) activity in the lung (premature lambs [4]; premature lambs, rhSP-D added to SURVANTA vs control, P<0.05): decreased NE activity
